In doi:10.1101/2022.01.09.475535 one finds stoichiometry N (U2AF2^12UL per SF3B1 ULM region) data, which are given here for one substance.

This experiment concerns the target SF3B1 N-terminal region, residues 147-462 (SFB1^147-462) (human) (UniProt O75533). The experiment in a line: ITC.

Chain of SF3B1 N-terminal region, residues 147-462 (SFB1^147-462) (human) (O75533 147-462): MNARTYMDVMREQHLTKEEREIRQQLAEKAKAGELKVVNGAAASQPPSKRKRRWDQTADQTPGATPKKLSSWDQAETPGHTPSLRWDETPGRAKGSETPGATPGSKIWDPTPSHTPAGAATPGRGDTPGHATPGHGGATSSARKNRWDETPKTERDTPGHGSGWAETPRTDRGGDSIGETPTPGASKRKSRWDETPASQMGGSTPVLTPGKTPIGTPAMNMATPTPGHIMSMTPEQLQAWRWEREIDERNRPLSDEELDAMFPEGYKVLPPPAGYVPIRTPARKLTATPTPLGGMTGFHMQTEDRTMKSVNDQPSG

The substance “U2AF2^12UL (nearly full-length U2AF2, residues 141-471) (domain or fragment)” came in with a stoichiometry N (U2AF2^12UL per SF3B1 ULM region) of 2.
